Measurements as given in US20190071477A1.

Tests used:
C3b [1] = target: C3b (UniProt P01024); assay: cell-based or functional assay
C3b [2] = target: C3b (UniProt P01024); assay: ELISA on plates coated with C3b (5 ug/mL), detection with mouse anti-human CFH antibody and HRP goat anti-mouse, OD450

hSCR (1-7)-mFc fusion protein, sequence (chain): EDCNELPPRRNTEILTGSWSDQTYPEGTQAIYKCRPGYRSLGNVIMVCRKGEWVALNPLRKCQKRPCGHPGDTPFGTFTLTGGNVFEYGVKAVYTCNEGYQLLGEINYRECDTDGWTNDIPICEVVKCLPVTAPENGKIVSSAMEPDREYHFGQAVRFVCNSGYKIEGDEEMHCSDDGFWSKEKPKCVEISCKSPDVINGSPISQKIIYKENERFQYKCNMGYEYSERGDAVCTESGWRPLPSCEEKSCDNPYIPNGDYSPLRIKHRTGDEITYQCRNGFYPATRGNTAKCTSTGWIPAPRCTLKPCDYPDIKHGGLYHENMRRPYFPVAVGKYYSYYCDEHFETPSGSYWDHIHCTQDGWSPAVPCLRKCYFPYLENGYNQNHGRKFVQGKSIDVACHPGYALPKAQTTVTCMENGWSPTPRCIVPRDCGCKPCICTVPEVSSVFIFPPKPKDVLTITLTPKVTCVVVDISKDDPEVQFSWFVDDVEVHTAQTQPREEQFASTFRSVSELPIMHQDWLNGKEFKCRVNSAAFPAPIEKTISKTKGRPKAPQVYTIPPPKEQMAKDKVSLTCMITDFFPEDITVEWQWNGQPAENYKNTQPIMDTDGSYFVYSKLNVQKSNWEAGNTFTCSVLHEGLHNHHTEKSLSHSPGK
human CFH (complement Factor H), sequence (P08603 19-1231 limits assumed): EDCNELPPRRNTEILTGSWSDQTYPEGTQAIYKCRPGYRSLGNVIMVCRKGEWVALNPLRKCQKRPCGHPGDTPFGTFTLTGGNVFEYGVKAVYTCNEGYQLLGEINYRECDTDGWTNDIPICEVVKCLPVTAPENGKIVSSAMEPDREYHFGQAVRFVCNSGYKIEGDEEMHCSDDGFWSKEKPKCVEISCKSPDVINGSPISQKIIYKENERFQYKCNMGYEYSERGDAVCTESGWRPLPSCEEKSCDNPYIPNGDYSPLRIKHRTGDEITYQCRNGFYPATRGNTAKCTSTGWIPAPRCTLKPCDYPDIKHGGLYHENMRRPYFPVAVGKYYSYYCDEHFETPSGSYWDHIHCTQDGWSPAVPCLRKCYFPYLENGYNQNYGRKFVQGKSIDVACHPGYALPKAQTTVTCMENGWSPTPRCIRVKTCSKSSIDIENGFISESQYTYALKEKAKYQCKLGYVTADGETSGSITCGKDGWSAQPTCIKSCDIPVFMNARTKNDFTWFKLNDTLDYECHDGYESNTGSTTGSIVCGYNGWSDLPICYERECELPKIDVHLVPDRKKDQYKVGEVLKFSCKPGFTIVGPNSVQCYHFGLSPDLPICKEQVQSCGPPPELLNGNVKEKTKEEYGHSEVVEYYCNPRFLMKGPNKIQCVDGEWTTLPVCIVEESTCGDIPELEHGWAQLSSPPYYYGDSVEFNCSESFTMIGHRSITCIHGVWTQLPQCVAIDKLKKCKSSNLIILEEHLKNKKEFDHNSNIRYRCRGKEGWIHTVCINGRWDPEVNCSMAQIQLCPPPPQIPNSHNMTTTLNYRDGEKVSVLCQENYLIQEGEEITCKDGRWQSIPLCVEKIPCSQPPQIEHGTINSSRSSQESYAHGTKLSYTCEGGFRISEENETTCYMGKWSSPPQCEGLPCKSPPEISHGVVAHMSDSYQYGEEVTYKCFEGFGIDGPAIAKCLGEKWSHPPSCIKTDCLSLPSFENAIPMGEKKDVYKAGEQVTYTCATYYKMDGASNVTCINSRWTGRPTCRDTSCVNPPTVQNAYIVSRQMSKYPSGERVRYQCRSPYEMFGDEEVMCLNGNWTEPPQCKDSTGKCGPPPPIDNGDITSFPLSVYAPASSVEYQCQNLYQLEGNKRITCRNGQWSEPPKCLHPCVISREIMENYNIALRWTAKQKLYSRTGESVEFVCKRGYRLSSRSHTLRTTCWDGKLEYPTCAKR
hSCR (1-7)-hSCR (18-20)-hFc fusion protein, sequence (P08603 other isoform, or with tags, fused parts or gaps limits assumed): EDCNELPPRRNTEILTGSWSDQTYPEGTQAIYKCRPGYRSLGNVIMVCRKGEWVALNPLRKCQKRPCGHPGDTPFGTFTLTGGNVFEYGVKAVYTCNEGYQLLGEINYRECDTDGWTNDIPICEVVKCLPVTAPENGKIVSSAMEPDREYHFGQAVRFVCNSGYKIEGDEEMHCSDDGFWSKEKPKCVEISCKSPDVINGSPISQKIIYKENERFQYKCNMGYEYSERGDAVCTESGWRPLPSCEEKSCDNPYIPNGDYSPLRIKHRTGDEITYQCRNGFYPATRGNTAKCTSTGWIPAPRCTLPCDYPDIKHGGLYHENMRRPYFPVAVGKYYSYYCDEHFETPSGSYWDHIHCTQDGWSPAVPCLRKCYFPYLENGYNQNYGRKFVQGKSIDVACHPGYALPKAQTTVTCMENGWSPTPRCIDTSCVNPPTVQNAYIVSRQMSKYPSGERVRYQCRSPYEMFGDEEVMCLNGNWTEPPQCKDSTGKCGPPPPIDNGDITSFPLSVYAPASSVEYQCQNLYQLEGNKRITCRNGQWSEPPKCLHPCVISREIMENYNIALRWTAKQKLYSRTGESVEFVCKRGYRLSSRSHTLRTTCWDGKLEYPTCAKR

Row | EC50 (read off the curve) (C3b [2]) | Substance | IC50, inhibition of rabbit red blood cell hemolysis mediated by the alternative complement pathway (C3b [1]) | hemolysis inhibiting activity relative to human CFH (C3b [1])
1 | 30 nM | hSCR (1-7)-hFc fusion protein | 74 nM | 5 times
2 | – | human CFH (complement Factor H) (from UniProt P08603 19-1231) | 370 nM | –
3 | – | hSCR (1-7)-hSCR (18-20)-hFc fusion protein (from UniProt P08603 19-1231) | 330 nM | –
4 | 30 nM | hSCR (1-7)-mFc fusion protein | 86 nM | –
